Assays:
[1] = tested on: CD11c^+ CD11b^+ CD205^+ cells; experiment: Flow analysis of lung CD11c+ dendritic cells after IL-33 challenge; type: in vivo, mouse; conditions: for change in CD11c^+ CD11b^+ CD205^+ cells: IL-33, n = 3
Procedure: Male mice in each group, 3-5 weeks old were anesthetized using Isoflurane. The mice were treated intranasal with 200ng/mice/day for four continues days. By the fifth day the mice were killed by CO2 suffocation, and bronchial alveolar lavage fluid (BALF) was extracted using PBS. The lungs were extracted and fixed using 10% para formaldehyde. Immunofluresence of slide sections was performed. Slides were analyzed using anti-PIN1 antibodies and anti-IRAK-M antibodies or IgG as control and were counterstained using DAPI. In some cases, cells obtained from BALF were cytospined and the cells were fixed and stained in the same manner. For staining of the cells, Diff-Quick (Diff-Quik) Staining Protocol were used. All animal work was carried out in compliance with the ethical regulations approved by the Animal Care Committee, Beth Israel Deaconess Medical Center, Boston, MA, USA. The permission was granted to perform animal experiments by the Institutional Animal Care and Use Committee at Beth Israel Deaconess Medical Center, Boston, MA, USA.
Lungs were digested using Kollagenase D and dispase and the dendritic cells populations (CD11c^+ CD205^+ CD11b^+) were determined by staining the cells using the following antibodies: PE anti mouse CD11c (catalog number 117307), APC anti mouse CD205 (catalog number 138205), FITC anti mouse CD11b (catalog number 101205). For co stimulatory protein expression, FITC anti mouse CD40 (catalog number 124607), FITC anti mouse CD80 (catalog number 104705), FITC anti mouse CD86 (catalog number 105005) were used. For T cell (CD3^+ CD4^+) population isolation, the cells were stained with APC anti mouse CD3^+ (catalog number 100235) FITC anti mouse CD4^+ (catalog number 100405) before the cells were cell sorted. Human BALF samples were stained with FITC anti human CD15 (catalog number 301903) or FITC anti human CD205 (catalog number 342206). All antibodies were purchased from Biolegend and diluted according to manufacture instruction (1:100 dilution). Cells were analyzed using LSRII flow cytometer and FlowJo software. For cytospin the cells were spun onto glass slides, air dried and fixed using 4%PFA and stained with the indicated antibodies.

CD3+ CD4+ T cells = experiment: Lung CD3+ CD4+ T cells after IL-33 challenge; type: in vivo, mouse; conditions: IL-33 intranasal, sorted lung T cells, n=3
Procedure: Lungs were digested using Kollagenase D and dispase and the dendritic cells populations (CD11c^+ CD205^+ CD11b^+) were determined by staining the cells using the following antibodies: PE anti mouse CD11c (catalog number 117307), APC anti mouse CD205 (catalog number 138205), FITC anti mouse CD11b (catalog number 101205). For co stimulatory protein expression, FITC anti mouse CD40 (catalog number 124607), FITC anti mouse CD80 (catalog number 104705), FITC anti mouse CD86 (catalog number 105005) were used. […] Cells were analyzed using LSRII flow cytometer and FlowJo software. […]
Supplementary Figure 6. […] ( b) The indicated lungs were digested and the CD3+ CD4+ cells were monitored and cell sorted using APC-CD3 and FITC-CD4 antibodies respectively, for further analysis. […] (c) Sorted CD3+ CD4+ cells from the indicated mice after PBS and IL-33 challenge were analyzed for IL-13 and IL-5 expression (n=3).
(d) Quantification of figure 6E; Dendritic cell CD11b+ expression in WT, Pin1KO and IRAK-M KO mice lungs, either treated with IL-33 or PBS as before. (e) WT and IRAK-M KO mice were either treated with IL-33 or PBS, the lungs were digested and the CD11c+ cells were analyzed for the expression of costimulatory proteins CD40, CD80 and CD86. […]

PIN1 = PIN1 enzymatic (PPIase) activity in DC2.4 cells; type: cell-based, C57BL/6; conditions: IL-33 100 ng/ml, 5 min, substrate Suc-Ala-Glu-Pro-Phe-pNa
Procedure: DC2.4 cell line were either treated with 100ng/ml IL-33 for indicate time (0, 5 and 15 min). The cells were harvested and homogenized in a reaction buffer containing 100 mM NaCl, 50 mM HEPES, pH 7, 2 mM DTT, and 0.04 mg/ml BSA. The lysates were cleared by centrifugation at 12,000 g for 10 minutes (4 °C). PPIase activity was measured using equal amounts of […] cytoplasmic lysates and α-chymotrypsin using a synthetic tetrapeptide substrate Suc-Ala-Glu-Pro-Phe-pNa (Peptides International). Absorption at 390 nm was measured using an Ultrospec 2000 spectrophotometer. The results are expressed as the mean of 3 measurements from a single experiment and are representative of 3 independent experiments.

B1: IL-33: Recombinant mouse IL-33 purchased from BioLegend (protein, UniProt Q8BVZ5 1-266, looked up)
Interleukin-33: MRPRMKYSNSKISPAKFSSTAGEALVPPCKIRRSQQKTKEFCHVYCMRLRSGLTIRKETSYFRKEPTKRYSLKSGTKHEENFSAYPRDSRKRSLLGSIQAFAASVDTLSIQGTSLLTQSPASLSTYNDQSVSFVLENGCYVINVDDSGKDQEQDQVLLRYYESPCPASQSGDGVDGKKLMVNMSPIKDTDIWLHANDKDYSVELQRGDVSPPEQAFFVLHKKSSDFVSFECKNLPGTYIGVKDNQLALVEEKDESCNNIMFKLSKI
change in CD11c^+ CD11b^+ CD205^+ cells ([1]; IRAK-M KO mice): non significant (NS) increase | CD40 and CD80 overexpression in lung CD11c^+ cells ([1]; IRAK-M KO mice, IL-33 treated, n=3): attenuated | change in CD11c^+ CD11b^+ CD205^+ cells ([1]; PIN1 KO mice): more moderate increase | CD40 and CD80 expression in lung CD11c^+ cells ([1]; WT mice, IL-33 treated, n=3): elevated | induction of CD11c^+ CD11b^+ CD205^+ cells ([1]; WT mice, IL-33 vs PBS, n = 3, P < 0.05): 3 fold | Il13 and -5 expression in CD3+ CD4+ T cells (CD3+ CD4+ T cells): markedly induced expression | PIN1 activity (PIN1): dramatically elevated PIN1 activity

— paper PMC5913134, “The IL-33-PIN1-IRAK-M axis is critical for type 2 immunity in IL-33-induced allergic airway inflammation” (Nature Communications, 2018)
